Laboratory results: article PMC8954747 (Viruses, 2022)

T1: human Scribble (SCRIB) PDZ2 domain (residues 860-950) (human, UniProt Q14160 860-950)
T1 construct: also called PDZ2 WT
T1 sequence (looked up): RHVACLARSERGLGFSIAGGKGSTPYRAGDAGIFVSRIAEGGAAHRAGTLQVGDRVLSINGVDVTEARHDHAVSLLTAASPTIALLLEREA

T2: human Scribble (SCRIB) PDZ4 domain (residues 1099-1203) (human, UniProt Q14160 1099-1203)
T2 sequence (looked up): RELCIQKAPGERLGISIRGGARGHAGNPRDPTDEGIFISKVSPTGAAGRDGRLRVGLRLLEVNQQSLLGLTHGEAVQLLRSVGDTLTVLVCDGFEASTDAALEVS

T3: human Scribble (SCRIB) PDZ3 domain (residues 1002-1093) (human, UniProt Q14160 1002-1093)
T3 construct: also called wild-type SCRIB PDZ3
T3 sequence (looked up): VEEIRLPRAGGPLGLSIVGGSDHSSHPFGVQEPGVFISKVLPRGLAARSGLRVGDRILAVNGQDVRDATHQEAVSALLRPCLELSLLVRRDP

B1: NS1 ESEV PBM peptide KMARTIESEV (H5N1 A/Viet Nam/1194/2004), 10-mer (peptide)
peptide: KMARTIESEV
B2: NS1 ESKV PBM peptide KMARTIESKV (H5N1 A/chicken/Hubei/327/2004), 10-mer (peptide)
peptide: KMARTIESKV

Experiments:
Assay in all cases: ITC
Conditions in all cases: both partners purified
[1] = target: T4, human Scribble (SCRIB) PDZ1 domain (residues 725-815) (human, UniProt Q14160 725-815)
T4 construct: also called PDZ1 WT

[2] = target: T1, human Scribble (SCRIB) PDZ2 domain …
[3] = target: T2, human Scribble (SCRIB) PDZ4 domain …
[4] = target: T3, human Scribble (SCRIB) PDZ3 domain …

T4 sequence (Q14160 725-815): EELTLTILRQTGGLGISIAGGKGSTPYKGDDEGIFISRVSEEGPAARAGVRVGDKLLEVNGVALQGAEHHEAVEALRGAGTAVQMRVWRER

Binder | Kd [1] [µM] | stoichiometry N [1] | Kd [2] [µM] | stoichiometry N [2] | Kd [3] [µM] | stoichiometry N [3] | Kd [4] [µM] | stoichiometry N [4]
B1 | 21.4 | 1.1 ± 0.1 | 18.7 | 1 ± 0.03 | 12.2 | 1 ± 0.1 | 13.1 | 1.1 ± 0.1
B2 | 30 | 1.2 | 9.5 | 1.1 |  |  | 12.1 | 1.1
